Data as given in patent US20250179187A1 (REJUVERON SENESCENCE THERAPEUTICS, published 2025).
Positions count from the first letter of the chain named. Read-outs that look alike come from different tables or passages of the source. One block for each binder: values may come before it.

Tests used:
[1] = target: T1, human PD-L2 on CHO-K1 cells over-expressing hPDL2-GFP (human, UniProt Q9BQ51 20-273); experiment: binding to cellular PDL2 (FIG. 1A by the text; flow cytometry on CHO-K1 cells expressing hPD-L2)
T1 construct: whole, on cells; also called cellular hPD-L2; cellular PDL2; not shown: GFP of the hPDL2-GFP construct
T1 sequence (looked up): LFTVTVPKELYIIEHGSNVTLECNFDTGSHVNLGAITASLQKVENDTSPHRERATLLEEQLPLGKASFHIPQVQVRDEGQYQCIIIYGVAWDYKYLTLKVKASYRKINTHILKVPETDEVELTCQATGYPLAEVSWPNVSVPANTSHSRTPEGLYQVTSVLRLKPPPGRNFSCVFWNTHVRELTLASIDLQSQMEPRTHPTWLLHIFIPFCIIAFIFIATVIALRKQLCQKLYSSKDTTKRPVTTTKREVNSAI
Description: (§1) CHO-K1 cells over-expressing either hPDL2-GFP or mPD-L2 GFP were detached, washed in phosphate buffered saline (PBS) and adjusted to a cell concentration of around 1 million cells in cytometry buffer (CB, PBS containing 1% […]). Around 80,000 cells were then distributed into a round-bottom 96 well plate and the plate was centrifuged for 3 minutes at 400 g at 4° C. and supernatant discarded. Appropriate antibody concentrations in 50 microliter volumes were added to the wells and incubated for 30 minutes at 6-8° C. The plate was washed 3 times with PBS and relevant secondary antibodies (either AlexaFluor 647 Goat anti-Mouse IgG (H+L) (Invitrogen A21235/lot 1915807) or AlexaFluor 647 Goat anti-Rat IgG (H+L) (Invitrogen A21247/lot 1921562) were added for 30 minutes at 4° C. Cells were again washed with PBS two times, resuspended in CB and analyzed in either the Sony ID7000 Spectral Cell analyzer (Sony) or the GALLIOS Flow Cytometer (Beckman-Coulter) was used. EC₅₀ was calculated using the Sigmoidal 4PL equation of the GraphPad Prism-9 software.

[2] = target: T2, recombinant mouse PD-L2 (Sino Biological, cat 50804-M08H-B) (mouse, UniProt Q9WUL5 20-219); experiment: ELISA on recombinant mPD-L2 according to the legend; the y axis on the sheet reads 'Mean fluorescent unit'
T2 construct: Bought protein; also called recombinant mPD-L2; recombinant mPDL2
T2 sequence (looked up): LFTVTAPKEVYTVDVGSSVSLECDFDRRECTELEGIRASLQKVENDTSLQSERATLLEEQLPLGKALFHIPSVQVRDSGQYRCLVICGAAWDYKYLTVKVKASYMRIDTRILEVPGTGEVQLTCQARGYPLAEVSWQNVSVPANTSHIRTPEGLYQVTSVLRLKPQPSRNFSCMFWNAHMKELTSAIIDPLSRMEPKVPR

[3] = target: T1, human PD-L2 on CHO-K1 cells …; experiment: flow cytometry blocking assay: antibody titrated against recombinant hPD-1 (constant 15 micrograms/mL) binding to CHO-K1 cells expressing hPD-L2; signal falls with the antibody; column head on the sheet is EC50
Description: CHO-K1 cells over-expressing either hPDL2-GFP were detached, washed in phosphate buffered saline (PBS) and adjusted to a cell concentration of around 1 million cells in CB. Around 80,000 cells were then distributed into a round-bottom 96 well plate and the plate was centrifuged for 3 minutes at 400 g at 4° C. and supernatant discarded. A constant concentration of ligand recombinant hPD-1 ligand (Sino Biological 10377-H08H/lot LC13JA2207) of 15 micrograms/mL was incubated with respective concentration of antibody, added to the cells and incubated for 30 min at 6-8° C. Cells were washed 3 times in PBS and then incubated with a rabbit polyclonal anti-His (Abcam Ab1187/lot GR3369369-1) in CB and subsequently washed three times in PBS. Cells were then incubated with a labeled anti-rabbit secondary (AlexaFluor 647 Goat anti-Rabbit IgG (H+L) (Invitrogen A21244/lot 1910774) for 15 minutes at 4° C., washed two times in PBS, resuspended in CB and analyzed in the Sony ID7000 Spectral Cell analyzer (Sony).

[4] = target: T3, human PD-L2 on CHO-K1 cells of the Promega PD-1/PD-L2 blockade bioassay (human, UniProt Q9BQ51 20-273); experiment: cell-based or functional assay
T3 sequence (looked up): T1 sequence (looked up)

[5] = target: T1, human PD-L2 on CHO-K1 cells …; experiment: flow cytometry on CHO-K1 cells expressing hPD-L2, median fluorescence
Description: as §1

[6] = target: T4, mouse PD-L2 on CHO-K1 cells over-expressing mPD-L2 GFP (mouse, UniProt Q9WUL5 20-247); experiment: flow cytometry on CHO-K1 cells overexpressing mPD-L2, mean fluorescence
T4 construct: whole, on cells; also called cellular mPD-L2; not shown: GFP of the mPD-L2 GFP construct
T4 sequence (looked up): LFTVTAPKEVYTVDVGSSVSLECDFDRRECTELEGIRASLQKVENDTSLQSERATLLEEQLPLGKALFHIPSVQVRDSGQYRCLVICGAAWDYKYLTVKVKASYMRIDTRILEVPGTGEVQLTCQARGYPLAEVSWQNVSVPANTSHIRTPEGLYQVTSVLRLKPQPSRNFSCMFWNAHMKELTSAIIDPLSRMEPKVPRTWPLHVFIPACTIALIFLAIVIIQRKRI
Description: as §1

[7] = target: T5, recombinant human PD-L2 (human PD-L2 antigen) (human, UniProt Q9BQ51 20-219, limits assumed); experiment: SPR (Biacore 8K), single cycle kinetics, antibody in culture supernatant, human PD-L2 antigen
T5 construct: The Biacore analyte and the ELISA antigen are only called human PD-L2 antigen / recombinant hPD-L2; Whole entry named; also called hPD-L2; recombinant hPD-L2
T5 sequence (looked up): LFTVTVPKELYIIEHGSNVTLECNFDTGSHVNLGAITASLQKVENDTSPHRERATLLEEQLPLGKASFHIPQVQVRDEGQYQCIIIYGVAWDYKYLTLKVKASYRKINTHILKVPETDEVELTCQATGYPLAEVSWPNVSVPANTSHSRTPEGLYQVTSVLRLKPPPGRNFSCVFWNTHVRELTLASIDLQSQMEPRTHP
Description: Table 2: Single cycle kinetic parameters of chimeric (VH0/VK0) and humanized variants (tested as cell culture supernatants) binding to human PD-L2 antigen as determined using the Biacore 8K. As used herein, the term “KD” is intended to refer to the dissociation equilibrium constant of a particular antibody-antigen interaction, ka is the binding rate constant and kd is the dissociation rate constant. The binding affinity of antibodies of the disclosed invention may be measured or determined by standard antibody-antigen assays. The relative KD was calculated by dividing the KD of the humanized variant by that of the VH0/VK0 assayed in the same experiment.

[8] = target: T3, human PD-L2 on CHO-K1 cells of the …; experiment: cell-based or functional assay; remark: listed apart in the source

- EC50 [1]: 0.219 nM
- EC50 (read off the curve) [2]: ~0.5 nM
- EC50 [3]: 0.6 nM
- EC50 (PD-1/PD-L2 blockade reporter assay, luminescence) [4]: 1.11 nM
- EC50 [5]: 0.538 nM
B1: VH0/VK0-mIgG1 (parental murine monoclonal antibody VHP/VKP on mIgG1 backbone) (antibody, V domains shown)
VH: QVQLQQSGAELVRPGTSVKVSCKASGYAFSNYFIEWVKQRPGQGLEWIGLNIPGSGGSNYAEKFKGKATLTADKSSSTAYMQLSSLTSEDSAVYFCARRRLPPDWYFDVWGTGTTVTVSS
VL: DVVMTQTPLSLPVSLGDQASISCRSSQSLVHSDGNTYLHWYLQKPGQSPKLLIYKVSNRFSGVPDRFSGSGSGTDFTLKISRVEAEDLGVYFCSQSTHVPWTFGGGTKLEIK
notes: Murine IgG1 backbone; also called parental mouse antibody

- EC50 [6]: 0.23 nM
- Kd [7]: 0.0528 nM
- Relative KD (KD of variant / KD of VH0/VK0) [7]: 1.47
- koff [7]: 0.000121 s⁻¹
- EC50 (PD-1/PD-L2 blockade reporter assay, luminescence) [8]: 1.29 nM
B2: VH8/VK2 (antibody, V domains shown)
VH: QVQLVQSGAEVKKPGSSVKVSCKASGYAFSNYFIEWVKQPPGKGLEWIGLNIPGSGGSNYAEKFKGRATITADKSTSTAYMELSSLRSEDTAVYYCARRRLPPDWYFDVWGQGTTVTVSS
VL: B1 VL with T7S, S14T, D17Q, Q18P, L42Q, S48P, L88V, F92Y, L109V
notes: hIgG1 backbone, CHO expressed
